{"source": "patent US20230050846A1", "about": "“TREATMENT OF HEPATIC AND CARDIOVASCULAR DISORDERS” (LIFESEARCH, priority 2019, published 2023)", "molecules": {"B1": {"name": "IF1: mature human IF1 protein (SEQ ID NO: 5), chemically synthesized, natural inhibitor of F1-ATPase (protein, listed as Homo sapiens)", "chain": "GSDQSENVDRGAGSIREAGGAFGKREQAEEERYFRAQSREQLAALKKHHEEEIVHHKKEIERLQKEIERHKQKIKMLKHDD"}}, "biological_target": "T1, human F1Fo-ATPase (Homo sapiens, UniProt P06576)", "T1 construct": "Human F1Fo-ATPase was purified from HepG2 cells by immunocapture; endogenous in cells; host or cells: HepG2 cells; complex isolated by immunocapture with anti-ATP synthase antibody 12F4AD8AF8 (#ab109867, Abcam)", "assay": "F1-ATPase activity assay (NADH-coupled, purified enzyme)", "assay_type": "biochemical", "details": "1 μM", "source_text": "The mature human IF1 protein (SEQ ID NO: 5) was chemically synthesized by GenScript (Piscataway, N.J., USA) at >80% purity. The peptides derived from the mature human IF1 sequence (IF1-1-60, IF1-10-56, IF1-10-47) were produced by BachemAG (Bubendorf, Switzerland) with >90% purity.\nHuman F1Fo-ATPase was purified from HepG2 cells by immunocapture using mouse monoclonal anti-ATP synthase antibody (12F4AD8AF8, #ab109867, Abcam) according to manufacturer's instructions.\nMeasurement of F1-ATPase activity was assayed as previously described. Briefly, 10 μg of F1Fo-ATPase was prepared into 50 μL of activity assay buffer (10 mM HEPES, 150 mM NaCl, 5 mM KCl, 5 mM MgCl2, 0.5 mM phosphoenolpyruvate, 250 μM NADH, 100 μM ATP, 20 U lactate dehydrogenase, 120 U pyruvate kinase). The mixture was incubated at 37° C. for 30 min. Then the F1-ATPase activity was measured in a 96-well microplate by adding 5 μL of the mixture (1 μg of F1Fo-ATPase per point) per well to 200 μL of activity assay buffer at 37° C., and by adding 5 μL of buffer with or without peptide (1 μM each). The reduction in the absorbance of NADH was measured at 340 nm for 5 min with a Varioskan™ Flash Multimode Reader (Thermo Fisher Scientific). A slope was calculated for each well and the results expressed as a percentage of the control slope."}
{"molecule": "B1", "values": [{"measurement": "inhibition of F1-ATPase activity as compared to control", "value": 96, "unit": "%"}]}
